The values below come from patent US9513240B2, “MEMS-based calorimeter, fabrication, and use thereof” (The Trustees of Columbia University in the City of New York, priority 2011, dated 2016).

Series [1] is described as follows: MEMS AC-DSC measurement of lysozyme unfolding. The format is physicochemical. From the text: The DSC measurement system was configured similarly to that of Example 2. The microdevice was also placed in a thermal enclosure built in-house. The temperature of the sample stage in the thermal enclosure was controlled in closed-loop via a proportional-integral-derivative (PID) algorithm implemented by a commercial temperature controller (Lakeshore 331). The on-chip microheaters driven by a DC power supply (Agilent E3631A) were used to generate a constant differential power input, while for modulated heating, a square-wave AC voltage generated by a waveform generator (Agilent 33220A) was applied (FIG. 13). […] During device calibration, the thermopile output voltage was measured by a nanovoltmeter (Agilent 34420A), while during AC-DSC measurement, the amplitude and phase of thermopile voltage were measured by a lock-in amplifier (Stanford Research Systems SR830) referenced by the same AC modulation square wave from the waveform generator. […]
The methods for calibrating the DC performance of the MEMS device were substantially the same as described in Example 2. The baseline in device output, i.e., the thermopile voltage with no differential power input during temperature scanning, was measured with both chambers filled with buffer solutions. […]
For orientation: Differential scanning calorimetry records heat flow against a reference as temperature is scanned.

The conditions of series [2]: typical range; cited from earlier work.
Series [3] can be described thus: MEMS DSC measurement of lysozyme unfolding. The format is physicochemical. As to conditions: lysozyme 1 to 20 mg/mL in 0.1 M Glycine-HCl buffer (pH 2.5); scan 25-75° C. at 5° C./min. Here is the method:
DSC measurements of biomolecules were performed using the calibrated microdevice, whose sample chamber and reference chamber were respectively filled with biological sample and buffer solutions, scanned in a range of temperature of interest. The temperature sensors were used to monitor the temperatures of calorimetric chambers while the device output was obtained in real time to compute the biomolecular thermal power. Before DSC measurements, the baseline in device output, i.e., the thermopile output voltage in the absence of a differential power input, during temperature scanning was measured with both calorimetric chambers filled with buffer solutions. Biological sample and buffer solutions were degassed with a vacuum chamber built in-house, metered with micropipettes, and introduced by a syringe pump (New Era Pump Systems, NE 1000).
The calibrated MEMS DSC device was employed to characterize protein unfolding, a common type of biomolecular conformational transition.
The thermopile output voltage as a function of temperature, corrected by baseline subtraction, was measured at varying protein concentrations ranging from 1 to 20 mg/mL (FIG. 10). […]

For the substance lysozyme, in series [1] (10 and 20 mg/mL in 0.1 M Glycine-HCl buffer, pH 2.5, 25 to 82° C. at 5° C./min, modulation 1, 5 or 10 Hz), the “apparent melting temperature (Tm)” value is 55-58 °C. For the same substance, in series [1] (regardless of the modulation frequency), the “difference in the specific heat capacity (Δc) between native and unfolded states” value is given as 3.0 kJ/mol·K. In addition, in series [2], the “Tm, published data” value was 55-58.9 °C and the “ΔH of unfolding, published data” value is 90.1 to 105 kcal/mol. In series [3], the “melting temperature Tm” value was “approximately 55 °C” and the “total change of molar enthalpy (ΔH) of unfolding” value is on record as “approximately 450 kJ/mol”.
